Data set [1] has as its target T1, mSNAPc#2 4Mu Y389A;R445A;R151A;W350A (Homo sapiens) (UniProt Q5SXM2+Q92966+Q16533+O75971).
T1 sequence 1: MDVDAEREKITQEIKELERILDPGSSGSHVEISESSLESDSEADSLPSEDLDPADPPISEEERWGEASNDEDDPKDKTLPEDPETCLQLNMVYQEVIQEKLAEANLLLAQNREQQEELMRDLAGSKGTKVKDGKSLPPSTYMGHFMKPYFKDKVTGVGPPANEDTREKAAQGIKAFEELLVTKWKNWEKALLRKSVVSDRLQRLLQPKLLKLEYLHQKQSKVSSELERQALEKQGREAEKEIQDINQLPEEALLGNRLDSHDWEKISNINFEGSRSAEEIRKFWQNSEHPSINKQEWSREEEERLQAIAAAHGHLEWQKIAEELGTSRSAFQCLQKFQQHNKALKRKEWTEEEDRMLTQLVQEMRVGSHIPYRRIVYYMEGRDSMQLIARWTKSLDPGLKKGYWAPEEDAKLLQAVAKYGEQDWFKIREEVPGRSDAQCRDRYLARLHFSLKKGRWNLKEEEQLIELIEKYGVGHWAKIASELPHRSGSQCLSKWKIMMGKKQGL
T1 sequence 2: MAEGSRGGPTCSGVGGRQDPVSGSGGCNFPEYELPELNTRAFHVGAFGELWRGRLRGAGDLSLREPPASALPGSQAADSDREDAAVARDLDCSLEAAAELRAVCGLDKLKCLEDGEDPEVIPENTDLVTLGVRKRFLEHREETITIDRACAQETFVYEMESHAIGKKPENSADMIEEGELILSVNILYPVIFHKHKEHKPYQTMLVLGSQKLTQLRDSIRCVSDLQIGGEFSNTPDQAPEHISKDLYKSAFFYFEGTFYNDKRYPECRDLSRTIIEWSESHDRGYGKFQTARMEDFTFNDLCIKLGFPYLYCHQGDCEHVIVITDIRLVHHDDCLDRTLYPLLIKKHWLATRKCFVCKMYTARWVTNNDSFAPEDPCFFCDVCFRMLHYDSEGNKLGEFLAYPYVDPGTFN
T1 sequence 3: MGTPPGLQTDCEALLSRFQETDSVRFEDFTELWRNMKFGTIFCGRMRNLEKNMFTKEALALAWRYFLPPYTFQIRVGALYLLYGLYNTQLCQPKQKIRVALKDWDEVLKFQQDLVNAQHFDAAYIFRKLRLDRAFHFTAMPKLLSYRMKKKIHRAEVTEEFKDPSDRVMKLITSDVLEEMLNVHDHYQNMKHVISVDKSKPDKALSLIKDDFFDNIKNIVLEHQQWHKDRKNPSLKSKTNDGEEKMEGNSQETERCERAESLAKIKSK
T1 sequence 4: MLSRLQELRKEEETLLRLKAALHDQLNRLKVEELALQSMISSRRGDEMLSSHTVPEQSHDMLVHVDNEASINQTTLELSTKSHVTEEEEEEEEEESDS
Kind of data set: SPR. The following applies: EMSA: 100 mM KCl, 25 mM HEPES-K pH 7.6, 12.5 mM MgCl2, 10 uM ZnCl2, 0.1 mM EDTA, 10% glycerol, 3 mM DTT, 0.5 mM PMSF, 50 nM DNA, RT 30 min; SPR: 100 mM KCl, 12. On the technique in general: Mobility shift assays separate free from complexed probe on a gel.

Data set [2] addresses T2, mSNAPc#2 5Mu Y389A;R445A;R151A;K194A;W350A (Homo sapiens) (UniProt Q5SXM2+Q92966+Q16533+O75971).
T2 sequence 1: T1 sequence 1
T2 sequence 2: T1 sequence 2 with K194A
T2 sequence 3: T1 sequence 3
T2 sequence 4: T1 sequence 4
Kind of data set: SPR. The following applies: EMSA: 100 mM KCl, 25 mM HEPES-K pH 7.6, 12.5 mM MgCl2, 10 uM ZnCl2, 0.1 mM EDTA, 10% glycerol, 3 mM DTT, 0.5 mM PMSF, 50 nM DNA, RT 30 min; SPR: 100 mM KCl, 12.

For another data set, the target named is T3, mSNAPc#11 (rod module) (Homo sapiens, UniProt Q5SXM2;Q16533;O75971 1-143;148-268;1-98).
T3 sequence 1: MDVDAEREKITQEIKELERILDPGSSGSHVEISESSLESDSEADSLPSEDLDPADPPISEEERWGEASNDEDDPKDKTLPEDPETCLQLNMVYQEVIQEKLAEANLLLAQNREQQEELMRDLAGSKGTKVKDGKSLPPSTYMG
T3 sequence 2: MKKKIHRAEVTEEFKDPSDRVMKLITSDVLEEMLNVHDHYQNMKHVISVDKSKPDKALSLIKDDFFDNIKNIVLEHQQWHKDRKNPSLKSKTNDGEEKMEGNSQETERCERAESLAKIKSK
T3 sequence 3: T1 sequence 4
Kind of data set: EMSA; 200 and 800 nM protein; EMSA: 100 mM KCl, 25 mM HEPES-K pH 7.6, 12.5 mM MgCl2, 10 uM ZnCl2, 0.1 mM EDTA, 10% glycerol, 3 mM DTT, 0.5 mM PMSF, 50 nM DNA, RT 30 min; SPR: 100 mM KCl, 12.5 mM MgCl2, 10 uM ZnCl2, 0.1 mM EDTA, 0.05% P20, 25 C. The following applies: protein: recombinant; tags: Strep SNAP19; MBP SNAP190; MBP N-term SNAP43; copies: 1;1;1; label: 5'-FAM on positive strand (EMSA).

Another data set has as its target T4, mSNAPc#2 WT (Homo sapiens, UniProt Q5SXM2;Q92966;Q16533;O75971 1-505;1-411;1-268;1-98).
T4 sequence 1: T1 sequence 1 with A389Y, A445R
T4 sequence 2: T1 sequence 2 with A151R, A350W
T4 sequence 3: T1 sequence 3
T4 sequence 4: T1 sequence 4
Kind of data set: EMSA; 200 and 1000 nM protein; EMSA: 100 mM KCl, 25 mM HEPES-K pH 7.6, 12.5 mM MgCl2, 10 uM ZnCl2, 0.1 mM EDTA, 10% glycerol, 3 mM DTT, 0.5 mM PMSF, 50 nM DNA, RT 30 min; SPR: 100 mM KCl, 12.5 mM MgCl2, 10 uM ZnCl2, 0.1 mM EDTA, 0.05% P20, 25 C. The following applies: protein: recombinant; tags: FLAG N-term SNAP190; 6xHis N-term SNAP43; copies: 1;1;1;1; label: 5'-FAM.

Positions count from the first letter of the chain named.

A word on the Kd: it is a measure of binding affinity in units of concentration. A higher Kd goes with weaker binding. For the molecule “TGCTTACCGTAACTTGAAAGTATTT (double strand) [25 bp hU6-1 PSE (SPR)]”, the equilibrium dissociation constant (Kd) in data set [1] stood at 8.91 µM; in data set [2], 49 µM.

B1: 25 bp hU6-1 PSE (dsDNA)
DNA 1: TGCTTACCGTAACTTGAAAGTATTT
DNA 2: AAATACTTTCAAGTTACGGTAAGCA
As for B1, the binding result with mSNAPc#11 (rod module) is recorded as “no binding”.

B2: PSE 6Sub (dsDNA)
DNA 1: TGCTTACCTGAACTTGCCATCATTT
DNA 2: AAATGATGGCAAGTTCAGGTAAGCA
Turning to B2, the binding result with mSNAPc#2 WT is reported as “no binding”.

B3: PSE 8Sub (dsDNA)
DNA 1: TGCTTACATGAACTTCCCATCATTT
DNA 2: AAATGATGGGAAGTTCATGTAAGCA
Consider B3, for which the binding result with mSNAPc#2 WT is “no binding”.

For the origin of these results see publication PMC9652321, “Structural basis of human SNAPc recognizing proximal sequence element of snRNA promoter”.
